Patent US20140249052A1

Biological target: Bio-GrBP5 (biotin-graphite binding peptide fusion, Bio-…)
Assay: integrated photoluminescence at 605 nm (514 nm laser) of SA-QD immobilised on bio-GrBP5 nanowires on graphite; the row 'SA-QD Bare' (38019.9, Std. Dev. 8427) is on graphite without peptide

Intensity (AU): 88200 AU
Substance: Cd-Se Qdot 605-streptavidin conjugate (Q10101MP, Life Technologies) (from UniProt P22629 37-163)
